Reference: US20210246195A1

Legend:
[1] = biological target: Ara h 2 (purified natural peanut allergen) (Arachis hypogaea) (UniProt Q6PSU2); test: biolayer interferometry
[2] = biological target: Ara h 2 (purified natural peanut allergen) (Arachis hypogaea) (UniProt Q6PSU2); test: BLI, antibody on anti-human IgG Fc sensors, Ara h 2 as analyte, top 6 nM
[3] = biological target: Ara h 2 (purified natural peanut allergen) (Arachis hypogaea) (UniProt Q6PSU2); test: not named there (biolayer interferometry in Example 1)

Chain of Ara h 2 (purified natural peanut allergen) (Arachis hypogaea) (Q6PSU2 22-172): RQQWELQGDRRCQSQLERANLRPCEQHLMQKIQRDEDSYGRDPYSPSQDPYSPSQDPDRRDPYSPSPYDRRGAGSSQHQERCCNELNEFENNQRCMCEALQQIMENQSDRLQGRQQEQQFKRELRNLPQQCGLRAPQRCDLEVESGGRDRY

Binder	Kd [1] [nM]	Kd [2] [nM]	Kd [3] [nM]
PA15P1D05 (antibody, human IgG1, V domains shown) VH: QVHLVESGGGVVQPGRSLGLSCVASGFTFNYYAIHWVRQAPGKGLEWVAVVSFDGNIIYYADSVKGRFNISRDNSKNTVNLQMNSLRPDDTAVYYCVRDGEYCSGGNCYWGDFDHWGQGSLVTVSP VL: EIVLTQSPATLSLSPGERATLSCRASQSISSEYLTWFQQKPGQAPRLLIYGAFNRATGIPDRFSGSGSGTDFTLTISSLEPEDFAVYYCQQYANWWTFGQGTKVEIK	< 1	0.54	–
PA15P1D12 (antibody, human IgG1, V domains shown) VH: QVHLVESGGGVVQPGRSLGLSCAASGFTFNYYAIHWVRQAPGKGLEWVAVVSFDGNIIYYADSVKGRFNISRDNSKNTVNLQMNSLRADDTAVYYCVRDGEYCSGGNCYWGDFDYWGQGTLVTVSP VL: EIVLTQSPGTLSLSPGERATLSCRASQSISSEYLTWFQQKPGQAPRLLIYGAFNRATGIPDRFSGSGSGTDFTLTISSLEPEDFAVYYCQQYANWWTFGQGTKVEIK	< 1	0.65	–
PA13P1H08 variant rFWRs-N (antibody, human IgG1, V domains shown) VH: QVQLVESGGGVVQPGRSLRLSCAASGFTFSTFGMHWVRQAPGKGLEWVAVISNDGEKSYYADSVKGRFTISRDNSKNTLYLQMNSLRAEDTAVYYCAKVLDYSRYSYYYGMDVWGQGTTVTVSS VL: EIVLTQSPGTLSLSPGGRGTLSCRTSQTINNAHLAWYQHKPGQAPRLLIYGSSERATGVPDRFSGSGSGSDFTLTISSLEAEDFAVYYCQHYGRSPPYTFGPGTKLDIK	–	0.039	–

Stronger by Kd [2], values ahead:

Kd [1] [nM]	Kd [2] [nM]	Kd [3] [nM]	Binder
–	0.014	–	PA12P3D08 (antibody, human IgG1, V domains shown) VH: QVQLVESGGGVVQPGKSLRLSCAASAFTFRRFAMHWVRQAPGKGLEWVAVISDNGLREDYEDSVKGRFTISRDNSQNTLYLQMNGLRAEDTAVYYCAKVLDYNEYSLYFGMDVWGQGTTVTVSS VL: EVVLTQSPATLSLSPGERATLSCRTSQAISNNFLAWYQQRPGQPPRLLIYASSRRATDTPDRFTGSGSGTDFTLTITRLEPEDFAVYFCQYYSDSPPYTFGPGTKLEIK
–	0.017	–	PA12P1C07 (antibody, human IgG1, V domains shown) VH: QVQLEESGGGVVQPGKSLRLSCVASAFTFKRFAMHWVRQAPGKGLEWVAVISDNGLREDYEDSVKGRFTISRDNSKDTLYLQMNSLRPEDTAIYYCAKVLDYSEYSLYFGMDVWGQGTTVLVSS VL: EIVLTQSPAILSLSPGDRATLSCRTSQTVNSNFLAWYQQKPGQAPRLLIYGASRRAIDIPDRFTGSGSGTEFTLTIARLEPEDFAVYSCQHYSDSPPYTFGQGTKLEIK
–	0.016	–	PA13P1H08 variant rCDR1-N (antibody, human IgG1, V domains shown) VH: QVQLVNSGGGVVQPGRSLRLSCVASGFTFSSYGIHWVRQAPGKGLEWVAVISNDGEKSESADSVKGRFTPSRDNSKNTVYLQMNNLRVEDTAVYYCAKVLDYSRYSYYYGMDVWGQGTTVIVSS VL: EIVLTQSPGTLSLSPGGRGTLSCRTSQTINNAHLAWYQHKPGQAPRLLIYGSSERATGVPDRFSGSGSGSDFTLTISSLEAEDFAVYYCQHYGRSPPYTFGPGTKLDIK
–	0.008	< 1	PA13P1H08 variant rCDR2-N (antibody, human IgG1, V domains shown) VH: QVQLVNSGGGVVQPGRSLRLSCVASGFTFSTFGIHWVRQAPGKGLEWVAVISYDGSNKESADSVKGRFTPSRDNSKNTVYLQMNNLRVEDTAVYYCAKVLDYSRYSYYYGMDVWGQGTTVIVSS VL: EIVLTQSPGTLSLSPGGRGTLSCRTSQTINNAHLAWYQHKPGQAPRLLIYGSSERATGVPDRFSGSGSGSDFTLTISSLEAEDFAVYYCQHYGRSPPYTFGPGTKLDIK
